In article PMC5542402:
Read-outs that look alike come from different tables or passages of the source.

B1: sel36m (dsDNA)
DNA 1: GATTCACAGCTGATACACAGGATCTAG
DNA 2: CTAGATCCTGTGTATCAGCTGTGAATC
B2: sel36 (dsDNA)
DNA 1: GATTCACAGCTGATTCACAGCATCTAG
DNA 2: CTAGATGCTGTGAATCAGCTGTGAATC

Experiments:
[1] = molecular target: T1, PhoP (Mycobacterium tuberculosis, UniProt P71814 1-247); assay: ITC
[2] = molecular target: T1, PhoP; assay: ITC; remark: listed apart in the source

Row | Binder | Kd [1] [µM] | Kd [2] [µM]
1 | B1 | 0.0323 ± 0.00412 | 
2 | B2 |  | 0.00803 ± 0.00342
